Consider 3 molecules from patent US20210221867A1, “Compounds Capable of Binding to Melanocortin 4 Receptor” (Novo Nordisk A/S, priority 2018, published 2021).

Positions of bridges follow the written chain, without caps; N, C: chain ends. Non-standard residues stand in square brackets, D forms with d. Nle = CCCC[C@H](N)C(=O)O

Test [1] has as its target human MC4 receptor (human) (UniProt P32245). Nature of the test: cell-based or functional assay.
Test [2] deals with human MC1 receptor (human) (UniProt Q01726). Nature of the test: cell-based or functional assay.
In test [3] the target is human MC4 receptor (human) (UniProt P32245). Nature of the test: SPA competition binding, displacement of 125I-NDP-α-MSH, BHK membranes with human MC4R.
The target of test [4] is human MC1 receptor (human) (UniProt Q01726). Briefly: SPA competition binding, displacement of 125I-NDP-α-MSH, BHK membranes with human MC1R. In general terms: In a radioligand displacement assay an active substance lowers the binding of a labelled ligand.

Chain of human MC1 receptor (human) (Q01726 whole entry): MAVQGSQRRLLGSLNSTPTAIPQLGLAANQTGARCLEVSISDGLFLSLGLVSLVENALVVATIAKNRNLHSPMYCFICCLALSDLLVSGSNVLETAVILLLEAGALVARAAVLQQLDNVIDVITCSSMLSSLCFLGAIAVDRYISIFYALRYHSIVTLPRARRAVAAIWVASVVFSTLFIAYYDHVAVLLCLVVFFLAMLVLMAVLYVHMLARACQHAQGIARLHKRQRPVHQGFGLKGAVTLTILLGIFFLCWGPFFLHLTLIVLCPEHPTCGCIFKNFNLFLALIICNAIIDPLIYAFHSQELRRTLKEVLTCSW
Chain of human MC4 receptor (human) (P32245 whole entry): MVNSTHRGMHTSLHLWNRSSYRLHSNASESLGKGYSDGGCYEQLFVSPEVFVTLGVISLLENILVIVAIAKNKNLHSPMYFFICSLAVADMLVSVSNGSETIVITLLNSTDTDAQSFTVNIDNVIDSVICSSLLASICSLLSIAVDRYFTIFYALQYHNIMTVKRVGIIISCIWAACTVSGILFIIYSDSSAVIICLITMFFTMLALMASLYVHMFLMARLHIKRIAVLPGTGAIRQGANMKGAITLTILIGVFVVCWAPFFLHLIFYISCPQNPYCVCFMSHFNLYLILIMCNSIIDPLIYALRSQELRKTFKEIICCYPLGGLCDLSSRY

B1: Ac-D-Arg-c[Cys-Pro-His-D-Phe-His-Trp-Cys]-Pro-Pro-D-Arg-Glu-Nle-D-Arg-D-Arg-NH2 (peptide)
peptide: Ac-[dR]CPH[dF]HWCPP[dR]E[Nle][dR][dR]-NH2
modifications: disulfide 2-8
SMILES: CCCC[C@H](NC(=O)[C@H](CCC(=O)O)NC(=O)[C@@H](CCCNC(=N)N)NC(=O)[C@@H]1CCCN1C(=O)[C@@H]1CCCN1C(=O)[C@@H]1CSSC[C@H](NC(=O)[C@@H](CCCNC(=N)N)NC(C)=O)C(=O)N2CCC[C@H]2C(=O)N[C@@H](Cc2c[nH]cn2)C(=O)N[C@H](Cc2ccccc2)C(=O)N[C@@H](Cc2c[nH]cn2)C(=O)N[C@@H](Cc2c[nH]c3ccccc23)C(=O)N1)C(=O)N[C@H](CCCNC(=N)N)C(=O)N[C@H](CCCNC(=N)N)C(N)=O
As to B1, the MC4R cAMP EC50 in test [1] worked out at 320 pM. The molecule also showed an MC1R cAMP EC50 in test [2] of 126000 pM. For the same molecule, the IC50 – broadly, the point on the concentration scale where inhibition reaches its midpoint – in test [3] was found to be 350 pM; in test [4], 44100 pM.

B2: Ac-D-Arg-c[Cys-Pro-His-D-Phe-His-Trp-Cys]-Pro-Pro-D-Arg-D-Arg-NH2 (peptide)
peptide: Ac-[dR]CPH[dF]HWCPP[dR][dR]-NH2
modifications: disulfide 2-8
SMILES: CC(=O)N[C@H](CCCNC(=N)N)C(=O)N[C@H]1CSSC[C@@H](C(=O)N2CCC[C@H]2C(=O)N2CCC[C@H]2C(=O)N[C@H](CCCNC(=N)N)C(=O)N[C@H](CCCNC(=N)N)C(N)=O)NC(=O)[C@H](Cc2c[nH]c3ccccc23)NC(=O)[C@H](Cc2c[nH]cn2)NC(=O)[C@@H](Cc2ccccc2)NC(=O)[C@H](Cc2c[nH]cn2)NC(=O)[C@@H]2CCCN2C1=O
For the molecule B2, the MC4R cAMP EC50 in test [1] is 190 pM. Also, the MC1R cAMP EC50 in test [2] is 179000 pM. The IC50 in test [3] is 390 pM; in test [4] it was 69000 pM.

B3: Ac-c[Cys-Pro-His-D-Phe-His-Trp-Cys]-Pro-Pro-D-Arg-Glu-Nle-D-Arg-D-Arg-D-Arg-NH2 (peptide)
peptide: Ac-CPH[dF]HWCPP[dR]E[Nle][dR][dR][dR]-NH2
modifications: disulfide 1-7
SMILES: CCCC[C@H](NC(=O)[C@H](CCC(=O)O)NC(=O)[C@@H](CCCNC(=N)N)NC(=O)[C@@H]1CCCN1C(=O)[C@@H]1CCCN1C(=O)[C@@H]1CSSC[C@H](NC(C)=O)C(=O)N2CCC[C@H]2C(=O)N[C@@H](Cc2c[nH]cn2)C(=O)N[C@H](Cc2ccccc2)C(=O)N[C@@H](Cc2c[nH]cn2)C(=O)N[C@@H](Cc2c[nH]c3ccccc23)C(=O)N1)C(=O)N[C@H](CCCNC(=N)N)C(=O)N[C@H](CCCNC(=N)N)C(=O)N[C@H](CCCNC(=N)N)C(N)=O
For the molecule B3, the MC4R cAMP EC50 in test [1] came out at 160 pM. In addition, the IC50 was 270 pM in test [3] and 138000 pM in test [4].
